The test system of one experiment is GhMYC2. Description: Yeast two hybrid with GhMYC2. The class given is binding, cotton. The method, then: The study on Arabidopsis had shown that the inhibition of JAZ protein on JA signaling was mainly achieved by inhibiting the transcription factor function of MYC, which had been experimentally verified by us in cotton. Based on the phylogenetic tree of Arabidopsis and cotton JAZs, we screened 6 cotton JAZs (GhJAZ1, GhJAZ7, GhJAZ9, GhJAZ10, GhJAZ11 and GhJAZ31), which were analyzed with GhMYC2, GhNINJA, GhTPL, GhHDA6, and GhCOI1 for yeast two hybrid. The amino acid sequence of GhJAZ1 was set forth in SEQ ID No. 4, and the corresponding encoding gene sequence was set forth in SEQ ID No. 39; the amino acid sequence of GhJAZ7 was set forth in SEQ ID No. 7, and the corresponding encoding gene sequence was set forth in SEQ ID No. 42; the amino acid sequence of GhJAZ9 was set forth in SEQ ID No. 2, and the corresponding encoding gene sequence was set forth in SEQ ID No. 37; the amino acid sequence of GhJAZ10 was set forth in SEQ ID No. 3, and the corresponding encoding gene sequence was set forth in SEQ ID No. 38; the amino acid sequence of GhJAZ11 was set forth in SEQ ID No. 5, and the corresponding encoding gene sequence was set forth in SEQ ID No. 40; and the amino acid sequence of GhJAZ31 was set forth in SEQ ID No. 9, and the corresponding encoding gene sequence was set forth in SEQ ID No. 44. The amino acid sequence of GhMYC2 was set forth in SEQ ID No. 71, and the corresponding encoding gene sequence was set forth in SEQ ID No. 72; the amino acid sequence of GhNINJA was set forth in SEQ ID No. 73, and the corresponding encoding gene sequence was set forth in SEQ ID No. 74; the amino acid sequence of GhTPL was set forth in SEQ ID No. 75, and the corresponding encoding gene sequence was set forth in SEQ ID No. 76; the amino acid sequence of GhHDA6 was set forth in SEQ ID No. 77, and the corresponding encoding gene sequence was set forth in SEQ ID No. 78; and the amino acid sequence of GhCOI1 was set forth in SEQ ID No. 79, and the corresponding encoding gene sequence was set forth in SEQ ID No. 80. […]
Chain of GhMYC2 (as listed by the source): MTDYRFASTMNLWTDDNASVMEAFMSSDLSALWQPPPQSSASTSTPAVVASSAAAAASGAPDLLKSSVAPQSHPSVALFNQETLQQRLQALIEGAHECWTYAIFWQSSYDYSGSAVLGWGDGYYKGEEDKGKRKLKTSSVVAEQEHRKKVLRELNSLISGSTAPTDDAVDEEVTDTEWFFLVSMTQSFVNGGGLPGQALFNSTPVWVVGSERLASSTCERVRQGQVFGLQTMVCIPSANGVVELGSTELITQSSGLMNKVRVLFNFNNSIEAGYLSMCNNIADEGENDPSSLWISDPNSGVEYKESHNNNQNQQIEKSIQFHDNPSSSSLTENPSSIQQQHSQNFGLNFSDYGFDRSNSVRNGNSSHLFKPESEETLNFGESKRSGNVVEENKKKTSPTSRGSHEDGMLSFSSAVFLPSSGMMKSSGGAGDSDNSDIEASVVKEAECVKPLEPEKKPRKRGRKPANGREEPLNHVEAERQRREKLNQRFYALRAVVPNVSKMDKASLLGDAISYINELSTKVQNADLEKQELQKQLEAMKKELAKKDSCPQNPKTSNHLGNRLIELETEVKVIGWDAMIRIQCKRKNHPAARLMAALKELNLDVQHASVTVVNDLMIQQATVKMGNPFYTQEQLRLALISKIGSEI

For another experiment, the target named is c-Myc (Homo sapiens, UniProt P01106). Put plainly: Yeast two hybrid with c-Myc. The experiment is classed as binding. Set-up: with the full length of c-Myc and NMYC, respectively; expressed in transfected cells; host or cells: yeast Y2HGold.
Chain of c-Myc (P01106 whole entry): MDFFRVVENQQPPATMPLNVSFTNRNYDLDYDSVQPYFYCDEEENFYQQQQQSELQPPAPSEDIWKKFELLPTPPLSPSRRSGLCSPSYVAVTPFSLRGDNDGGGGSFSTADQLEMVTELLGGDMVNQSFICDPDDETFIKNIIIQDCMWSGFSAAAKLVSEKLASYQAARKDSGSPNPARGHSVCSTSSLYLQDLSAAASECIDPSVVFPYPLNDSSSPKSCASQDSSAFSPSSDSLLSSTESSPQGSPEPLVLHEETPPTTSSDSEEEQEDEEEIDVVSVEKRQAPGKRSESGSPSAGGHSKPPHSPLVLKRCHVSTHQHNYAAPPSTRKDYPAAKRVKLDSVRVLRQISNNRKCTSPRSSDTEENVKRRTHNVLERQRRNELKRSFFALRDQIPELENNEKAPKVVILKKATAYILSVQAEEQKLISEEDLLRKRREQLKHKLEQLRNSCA
From the text: […]

Two molecules from patent US20240279288A1, “APPLICATION OF PLANT JAZ PROTEINS AND DERIVED POLYPEPTIDES IN PREVENTION AND TREATMENT OF HUMAN AND ANIMAL TUMORS” (ANYANG INSTITUTE OF SINO-COTTON INDUSTRY INNOVATION, priority 2021, published 2024) can be followed below.

B1: GhJAZ1: cotton JAZ1 protein, gene number Gh_A05G0260, sequence SEQ ID No. 4; prokaryotically expressed with His tag, about 30 KD (protein)
chain: MSSCSESTAMKPARSPEKPSFAQTCNLLSQYLKEKGSFGDLSLGMTCNVEANGTPVVPPPTMNLFPLNDKSDDVCGRNGGNPKNLTSMDLFPQQAGLASKDDSPNKLEPQTAPMTIFYGGQVIVFNDFPANKAKEIMLLASNSSSQSNNSFNPIPFTSSIARSPIESSIGVPPTSKPVHPAQRAVPGDLPIARRASLHRFLEKRKDRITAKAPYQINNSAAAPSLSGDNKSWLGLAAQSP
modifications: His tag
notes: prokaryotically expressed with His tag, about 30 KD
For the molecule B1, in the experiment on GhMYC2, the “interaction with GhMYC2” value is listed as “strong”. For the same molecule, the “interaction with c-Myc” value with c-Myc is listed as “interacted”.

B2: GhJAZ1 after deletion of NT domain: GhJAZ1 mutant with NT domain deleted, protein sequence SEQ ID No. 83 (protein)
chain: MSSCSESTAMKPARSPEANGTPVVPPPTMNLFPLNDKSDDVCGRNGGNPKNLTSMDLFPQQAGLASKDDSPNKLEPQTAPMTIFYGGQVIVFNDFPANKAKEIMLLASNSSSQSNNSFNPIPFTSSIARSPIESSIGVPPTSKPVHPAQRAVPGDLPIARRASLHRFLEKRKDRITAKAPYQINNSAAAPSLSGDNKSWLGLAAQSP
B2: the “interaction with GhMYC2” value with GhMYC2 is on record as “significantly weakened”. In the experiment with c-Myc, the “interaction with c-Myc” value was “significantly weakened”.
